According to PMC5435919 (Nucleic Acids Research, 2017):

Assays:
SEC-MALS = molecular target: the molecule itself; test: SEC-MALS
atomic force microscopy = molecular target: the molecule itself; test: atomic force microscopy
DmGen (1-518)-His = molecular target: T1, DmGen (1-518)-His (Drosophila melanogaster, UniProt Q9VRJ0 1-518); test: EMSA
T1 sequence: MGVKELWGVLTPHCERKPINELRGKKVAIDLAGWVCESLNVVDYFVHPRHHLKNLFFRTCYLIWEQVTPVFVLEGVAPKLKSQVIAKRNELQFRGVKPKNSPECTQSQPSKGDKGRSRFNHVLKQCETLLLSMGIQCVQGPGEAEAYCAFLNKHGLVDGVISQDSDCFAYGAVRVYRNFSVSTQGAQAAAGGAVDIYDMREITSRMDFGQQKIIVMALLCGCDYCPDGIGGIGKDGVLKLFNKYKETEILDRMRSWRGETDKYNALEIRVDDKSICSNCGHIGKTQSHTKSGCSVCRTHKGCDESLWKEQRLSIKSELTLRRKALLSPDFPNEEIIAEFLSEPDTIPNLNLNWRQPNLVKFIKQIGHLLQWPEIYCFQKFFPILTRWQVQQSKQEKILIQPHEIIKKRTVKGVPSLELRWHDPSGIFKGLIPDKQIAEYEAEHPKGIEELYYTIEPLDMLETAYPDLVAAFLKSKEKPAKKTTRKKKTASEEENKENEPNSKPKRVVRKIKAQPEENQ

| Binder | stoichiometry N (SEC-MALS) | Kd (atomic force microscopy) | binding result (DmGen (1-518)-His) |
| --- | --- | --- | --- |
| truncated DmGen (1-518 aa) with C-terminal hexahistidine tag (enzyme, Drosophila, UniProt Q9VRJ0 1-518, looked up) MGVKELWGVLTPHCERKPINELRGKKVAIDLAGWVCESLNVVDYFVHPRHHLKNLFFRTCYLIWEQVTPVFVLEGVAPKLKSQVIAKRNELQFRGVKPKNSPECTQSQPSKGDKGRSRFNHVLKQCETLLLSMGIQCVQGPGEAEAYCAFLNKHGLVDGVISQDSDCFAYGAVRVYRNFSVSTQGAQAAAGGAVDIYDMREITSRMDFGQQKIIVMALLCGCDYCPDGIGGIGKDGVLKLFNKYKETEILDRMRSWRGETDKYNALEIRVDDKSICSNCGHIGKTQSHTKSGCSVCRTHKGCDESLWKEQRLSIKSELTLRRKALLSPDFPNEEIIAEFLSEPDTIPNLNLNWRQPNLVKFIKQIGHLLQWPEIYCFQKFFPILTRWQVQQSKQEKILIQPHEIIKKRTVKGVPSLELRWHDPSGIFKGLIPDKQIAEYEAEHPKGIEELYYTIEPLDMLETAYPDLVAAFLKSKEKPAKKTTRKKKTASEEENKENEPNSKPKRVVRKIKAQPEENQ | 2 | ~100 nM | – |
| linear dsDNA (oligos 888/888rc) (dsDNA) DNA 1: GACGCTGCCGAATTCTGGCGTTAGGAGATACCGATAAGCTTCGGCTTAA DNA 2: TTAAGCCGAAGCTTATCGGTATCTCCTAACGCCAGAATTCGGCAGCGTC | – | – | no binding |
